Reference: patent US20030219717A1, “Fluorophore complementation products” (priority 2002, published 2003)

Experiments:
[1] = molecular target: FKBP / FRB (FKBP binding part of FRAP) interaction (Homo sapiens, UniProt P42345+P62942); assay: Rapamycin-induced E[F64L]YFP fragment complementation (EYFP fluorescence) in stably transfected CHO-hIR cells; type: cell-based; settings: CHO-hIR [PS1767+PS1768], 1 μM rapamycin
Description: Probes were co-transfected in pairs into CHO-hIR cells (supra), PS1769 with PS1771 and PS1767 with PS1768, using the transfection agent FuGENE™ 6 (Boehringer Mannheim Corp, USA) according to the method recommended by the suppliers. Cells were cultured in growth medium (HAM's F12 nutrient mix with Glutamax-1, 10% foetal bovine serum (FBS), 100 μg penicillin-streptomycin mixture ml^−1 (GibcoBRL, supplied by Life Technologies, Denmark)). Transfected cells were cultured in this medium, with the addition of two selection agents appropriate to the plasmids being used, being 1 mg/ml zeocin plus 0.5 mg/mlG418 sulphate. […]
After 10 to 12 days culture in the continuous presence of the selection agents, the resulting cell lines were judged to be stably transfected. For fluorescence microscopy, aliquots of cells were transferred to Lab-Tek chambered cover glasses (Nalge Nunc International, Naperville USA) and allowed to adhere for at least 24 hours to reach about 80% confluence. Images were routinely collected using a Nikon Diaphot 300 inverted fluorescence microscope (Nikon Corp., Tokyo, Japan) using ×20 (dry) and/or ×40 (oil immersion) objectives and coupled to a Orca ER charged coupled device (CCD) camera (Hammamatsu Photonics K. K., Hammamatsu City, Japan). […]
This is easily accomplished through fluorescence activated cell sorting (FACS) methods. […]

[2] = molecular target: FRB-CtermEYFP173 (human; Aequorea victoria) (UniProt P42345); assay: cell-based or functional assay
[3] = molecular target: FKBP-CtermEYFP173 (human; Aequorea victoria) (UniProt P62942); assay: cell-based or functional assay
Sequence of FKBP-CtermEYFP173 (human; Aequorea victoria) (P62942 other isoform, or with tags, fused parts or gaps, form in doubt): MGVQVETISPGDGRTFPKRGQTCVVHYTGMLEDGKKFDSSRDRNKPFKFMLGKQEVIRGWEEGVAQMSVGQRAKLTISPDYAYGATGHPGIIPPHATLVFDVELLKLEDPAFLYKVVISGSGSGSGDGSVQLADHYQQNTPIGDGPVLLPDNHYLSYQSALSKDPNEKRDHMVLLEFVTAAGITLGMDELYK

`CO[C@H]1C[C@@H]2CC[C@@H](C)[C@@](O)(O2)C(=O)C(=O)N2CCCC[C@H]2C(=O)O[C@H]([C@H](C)C[C@@H]2CC[C@@H](O)[C@H](OC)C2)CC(=O)[C@H](C)/C=C(\C)[C@@H](O)[C@@H](OC)C(=O)[C@H](C)C[C@H](C)/C=C/C=C/C=C/1C` [rapamycin] was tested, and the “Proportion of cells with significantly greater EYFP fluorescence” value ([1]; after 4 hours) was “approximately 40%” and the “Proportion of the cell population encompassed by the EYFP fluorescence response” value ([1]; after 16 hours) was “approximately 70%”.
For “NtermE[F64L]YFP172-FKBP (from UniProt P62942 1-108)”, the EC50 of FK506 against 100 nM rapamycin, EYFP fluorescence/cell, 'black' FACS group [2] was 1.2 µM.
“NtermE[F64L]YFP172-FRB (from UniProt P42345 2025-2114)” showed an EC50 of FK506 against 100 nM rapamycin, EYFP fluorescence/cell, 'mid to low-green' FACS group [3] of 1.2 µM, an EC50 of rapamycin for EYFP fluorescence, 'black' FACS group, 7 and 30 hours [3] of 0.1 µM and an EC50 of rapamycin for EYFP fluorescence, 'medium to low-green' FACS group, 7 and 30 hours [3] of 0.25 µM. For the same compound, the half-time for development of fluorescence after 3 uM rapamycin [3] was 5 h, the increase in EYFP fluorescence over the unstimulated value, 'black' FACS group [3] was over 20 fold and the increase in EYFP fluorescence over the unstimulated value, 'medium to low-green' FACS group [3] was over 20 fold. It also gave a proportion of cells with appreciable EYFP fluorescence before rapamycin (t=0) [3] of under 5%, a proportion of cells with significantly greater EYFP fluorescence 4 hours after 1 uM rapamycin [3] of 40% and a proportion of responding cells 16 hours after 1 uM rapamycin [3] of 70%.
